Measured values: ChEMBL document CHEMBL2073860, “A third human carnitine/organic cation transporter (OCTN3) as a candidate for the 5q31 Crohn's disease locus (IBD5)” (Biochem Biophys Res Commun, 2003)

Substrate: C[N+](C)(C)CC(O)CC(=O)[O-]
Experiment: TP_TRANSPORTER: uptake in Octn3-HepG2 cells
Format: functional, cell-based

B1: Solute carrier family 22 member 21 (Mus musculus), Q9WTN6 (protein)
chain: MLDYDEVTAFLGEWGTFQRLIFFLLSASIIPNGFTGLSAVFLTAIPEHRCRIPDTVNLSSAWRNHSIPMETKDGPEVPQKCRRYRLATIANFSELGLEPGRDVDLEQLEQENCLDGWEYDKDIFLSTIVTEWDLVCKDDWKAPLTTSFFYVGVLLGSFISGQLSDRFGRKNILFLTMAMHTGFSFIQVFSVNFEMFTLLYTLVGMGHISNYVAAFVLGTEMLSKSVRIIFATLGVCIFFAFGFMVLPLFAYFIREWRRLLLAITLPGVLCGALWWFIPESPRWLISQGRIKEAEVIIRKAAKINGIVAPSTIFDPSETNKLQDDSSKKPQSHHIYDLVRTPNIRILTIMSIILWLTISVGYFGLSLDTPNLNGNIYVNCFLLAAVEVPAYVLAWLLLQHVSRRYSMAGSLFLGGSVLLLVQLVPSDLHYLSTTLVMVGKFGITSAYSMVYVYTAELYPTVVRNMGVGVSSTASRLGSILSPYFVYLGAYDRRLPYILMGSLTILTAIITLFFPESSGVSLPETIDEMQKVKKLKQRQSLSKKGSPKESKGNVSRTSRTSEPKGF
  Km: 20 µM
